# In the RNAGym collection of RNA variant scans (doi:10.7554/elife.80360):
# B1: CPEB3 Ribozyme (parent)
# chain: GGGGGCCACAGCAGAAGCGUUCACGUCGCGGCCCCUGUCAGAUUCUGGUGAAUCUGCGAAUUCUGCUGU
# Variants of: B1
# Experiment: self-cleavage, relative activity (ratio to wild type); higher = more cleavage; co-transcriptional
row,Variant,self-cleavage
1,GGGGGCCACAGCAGAAGCGUUCACGUCGCGGCCCCUGGCAGAUUCUGGUGAAUCUGCGAAUGCUGCUGU [U38G U62G],0.183
2,GGGGGCCACAGCAGAAGCGUUCACGUCGCGGCCCCUGGCAGAUUCUGGUGAAUCUGCGAAUACUGCUGU [U38G U62A],0.291
3,GGGGGCCACAGCAGAAGCGUUCACGUCGCGGCCCCUGUGAGAUUCCGGUGAAUCUGCGAAUUCUGCUGU [C39G U46C],0.903
4,GGGGGCCACAGCAGAAGCGUUCACGUCGCGGCCCCUGUUUGAUUCUGGUGAAUCUGCGAAUUCUGCUGU [C39U A40U],0.624
5,GGGGGCCACAGCAGAAGCGUUCACGUCGCGGCCCCUGUAAGUUUCUGGUGAAUCUGCGAAUUCUGCUGU [C39A A42U],0.551
6,GGGGGCCACAGCAGAAGCGUUCACGUCGCGGCCCCUGUAAGAUUCUGGGGAAUCUGCGAAUUCUGCUGU [C39A U49G],0.928
7,GGGGGCCACAGCAGAAGCGUUCACGUCGCGGCCCCUGUAAGAUUCUGGCGAAUCUGCGAAUUCUGCUGU [C39A U49C],0.811
8,GGGGGCCACAGCAGAAGCGUUCACGUCGCGGCCCCUGUGAGAUUCUGGUGAAUCUGCGAAUUCUCCUGU [C39G G65C],0.297
9,GGGGGCCACAGCAGAAGCGUUCACGUCGCGGCCCCUGUGAGAUUCUGGUGAAUCUGCGAAUUCUUCUGU [C39G G65U],0.442
10,GGGGGCCACAGCAGAAGCGUUCACGUCGCGGCCCCUGUGAGAUUCUGGUGAAUCUGCGAAUUCUGCUUU [C39G G68U],0.988
11,GGGGGCCACAGCAGAAGCGUUCACGUCGCGGCCCCUGUGAGAUUCUGGUGAAUCUGCCAAUUCUGCUGU [C39G G58C],0.929
12,GGGGGCCACAGCAGAAGCGUUCACGUCGCGGCCCCUGUAAGAUUCUGGUGAAUCUGCCAAUUCUGCUGU [C39A G58C],0.907
13,GGGGGCCACAGCAGAAGCGUUCACGUCGCGGCCCCUGGCAGAUUCUGGUCAAUCUGCGAAUUCUGCUGU [U38G G50C],0.161
14,GGGGGCCACAGCAGAAGCGUUCACGUCGCGGCCCCUGUAAGAUUCUGGUGUAUCUGCGAAUUCUGCUGU [C39A A51U],0.728
15,GGGGGCCACAGCAGAAGCGUUCACGUCGCGGCCCCUGGCAGAUUCGGGUGAAUCUGCGAAUUCUGCUGU [U38G U46G],0.308
16,GGGGGCCACAGCAGAAGCGUUCACGUCGCGGCCCCUGUGAGAUUCUGGUGAAUCUGCGAAUUCUGCUGG [C39G U69G],1
17,GGGGGCCACAGCAGAAGCGUUCACGUCGCGGCCCCUGUGAGAUUCUGGUGAAUCUGCGAAUUCUGCUGA [C39G U69A],0.967
18,GGGGGCCACAGCAGAAGCGUUCACGUCGCGGCCCCUGUUAGUUUCUGGUGAAUCUGCGAAUUCUGCUGU [C39U A42U],0.736
19,GGGGGCCACAGCAGAAGCGUUCACGUCGCGGCCCCUGUGAGAUUCUGGUGAAUCUGCGAAUUCAGCUGU [C39G U64A],0.636
20,GGGGGCCACAGCAGAAGCGUUCACGUCGCGGCCCCUGUAAGAUUCUGGUGAAUCUGAGAAUUCUGCUGU [C39A C57A],0.337
21,GGGGGCCACAGCAGAAGCGUUCACGUCGCGGCCCCUGUUAGAUUAUGGUGAAUCUGCGAAUUCUGCUGU [C39U C45A],0.759
22,GGGGGCCACAGCAGAAGCGUUCACGUCGCGGCCCCUGUUAGAUUGUGGUGAAUCUGCGAAUUCUGCUGU [C39U C45G],0.74
23,GGGGGCCACAGCAGAAGCGUUCACGUCGCGGCCCCUGUGAGAUUCUGGUGAAUCUGCGAACUCUGCUGU [C39G U61C],0.394
24,GGGGGCCACAGCAGAAGCGUUCACGUCGCGGCCCCUGUGAGAUUCUGGUGAAUCUGCGAAUUCUGAUGU [C39G C66A],0.531
25,GGGGGCCACAGCAGAAGCGUUCACGUCGCGGCCCCUGUAAGAUUCUGGUGAAUCUGCGUAUUCUGCUGU [C39A A59U],0.446
26,GGGGGCCACAGCAGAAGCGUUCACGUCGCGGCCCCUGUAAGAUUCUGGUGAAUCUGCGGAUUCUGCUGU [C39A A59G],0.911

row,Variant,self-cleavage
1,GGGGGCCACAGCAGAAGCGUUCACGUCGCGGCCCCUGUAAGAUUCUGGUGAAUCUGCGAAAUCUGCUGU [C39A U61A],0.601
2,GGGGGCCACAGCAGAAGCGUUCACGUCGCGGCCCCUGGCAGAUUCUGGUGAAUCUGCGAAUUCUCCUGU [U38G G65C],0.161
3,GGGGGCCACAGCAGAAGCGUUCACGUCGCGGCCCCUGUGAGAUUCUGGUGAAUCUGCGAAUUGUGCUGU [C39G C63G],0.513
4,GGGGGCCACAGCAGAAGCGUUCACGUCGCGGCCCCUGUAAGAUUCUGGUGAAUCUGCGAAUUCUGCUAU [C39A G68A],0.925
5,GGGGGCCACAGCAGAAGCGUUCACGUCGCGGCCCCUGUGAAAUUCUGGUGAAUCUGCGAAUUCUGCUGU [C39G G41A],0.486
6,GGGGGCCACAGCAGAAGCGUUCACGUCGCGGCCCCUGUAACAUUCUGGUGAAUCUGCGAAUUCUGCUGU [C39A G41C],0.396
7,GGGGGCCACAGCAGAAGCGUUCACGUCGCGGCCCCUGUAAAAUUCUGGUGAAUCUGCGAAUUCUGCUGU [C39A G41A],0.383
8,GGGGGCCACAGCAGAAGCGUUCACGUCGCGGCCCCUGUGAGAUUCUGGGGAAUCUGCGAAUUCUGCUGU [C39G U49G],0.994
9,GGGGGCCACAGCAGAAGCGUUCACGUCGCGGCCCCUGUUAGAUUCUGGUGAAUCUGCGAAUUCUGGUGU [C39U C66G],0.579
10,GGGGGCCACAGCAGAAGCGUUCACGUCGCGGCCCCUGGCAGAUUCUGGUGAAUCUGCUAAUUCUGCUGU [U38G G58U],0.294
11,GGGGGCCACAGCAGAAGCGUUCACGUCGCGGCCCCUGGCAGAUUCUGGUGAAGCUGCGAAUUCUGCUGU [U38G U53G],0.255
12,GGGGGCCACAGCAGAAGCGUUCACGUCGCGGCCCCUGGCAGAUUCUGGUGAAACUGCGAAUUCUGCUGU [U38G U53A],0.287
13,GGGGGCCACAGCAGAAGCGUUCACGUCGCGGCCCCUGGCAGAUUCUGGUGAACCUGCGAAUUCUGCUGU [U38G U53C],0.24
14,GGGGGCCACAGCAGAAGCGUUCACGUCGCGGCCCCUGUUAGAUUCUGGUGAAUCUGGGAAUUCUGCUGU [C39U C57G],0.403
15,GGGGGCCACAGCAGAAGCGUUCACGUCGCGGCCCCUGUUAGAUUCUGGUGAAUCUGAGAAUUCUGCUGU [C39U C57A],0.34
16,GGGGGCCACAGCAGAAGCGUUCACGUCGCGGCCCCUGUAAGAUUCUGGUGAAUCAGCGAAUUCUGCUGU [C39A U55A],0.825
17,GGGGGCCACAGCAGAAGCGUUCACGUCGCGGCCCCUGUGAGAUUCUGGUGAAUCUGCGAAUUCUGCGGU [C39G U67G],0.965
18,GGGGGCCACAGCAGAAGCGUUCACGUCGCGGCCCCUGUGAGAUUCUGGUGAAUCUGCGAAUUCUGCAGU [C39G U67A],0.927
19,GGGGGCCACAGCAGAAGCGUUCACGUCGCGGCCCCUGUAAGAUUCUGGUGAAUCUGCGAAUUCUGCUGC [C39A U69C],1.01
20,GGGGGCCACAGCAGAAGCGUUCACGUCGCGGCCCCUGUAAGAUUCUGGUGAAUCUGCGAAUUCUGCUGA [C39A U69A],0.908
21,GGGGGCCACAGCAGAAGCGUUCACGUCGCGGCCCCUGUGAGAUUCUGGUGAAUCUGGGAAUUCUGCUGU [C39G C57G],0.361
22,GGGGGCCACAGCAGAAGCGUUCACGUCGCGGCCCCUGUGAGAUUCUGGUGAAUCUGUGAAUUCUGCUGU [C39G C57U],0.327
23,GGGGGCCACAGCAGAAGCGUUCACGUCGCGGCCCCUGUGAGAUUCUGGUGAAUCUGAGAAUUCUGCUGU [C39G C57A],0.303
24,GGGGGCCACAGCAGAAGCGUUCACGUCGCGGCCCCUGUAAGAUUCUGGUGAAUCUGCGAAUGCUGCUGU [C39A U62G],0.428
25,GGGGGCCACAGCAGAAGCGUUCACGUCGCGGCCCCUGUAAGAUUCUGGUGAAUCUGCGAAUCCUGCUGU [C39A U62C],0.595
26,GGGGGCCACAGCAGAAGCGUUCACGUCGCGGCCCCUGUGAGAUUCUGGUGAAUCUGCGGAUUCUGCUGU [C39G A59G],0.947

row,Variant,self-cleavage
1,GGGGGCCACAGCAGAAGCGUUCACGUCGCGGCCCCUGUGAGAUUCUGGUUAAUCUGCGAAUUCUGCUGU [C39G G50U],0.957
2,GGGGGCCACAGCAGAAGCGUUCACGUCGCGGCCCCUGUGAGAUUCUGGUAAAUCUGCGAAUUCUGCUGU [C39G G50A],0.962
3,GGGGGCCACAGCAGAAGCGUUCACGUCGCGGCCCCUGUAAGAUUGUGGUGAAUCUGCGAAUUCUGCUGU [C39A C45G],0.659
4,GGGGGCCACAGCAGAAGCGUUCACGUCGCGGCCCCUGUUAGAUUCUGGUGCAUCUGCGAAUUCUGCUGU [C39U A51C],0.737
5,GGGGGCCACAGCAGAAGCGUUCACGUCGCGGCCCCUGUUAGAUUCUGGUGGAUCUGCGAAUUCUGCUGU [C39U A51G],0.892
6,GGGGGCCACAGCAGAAGCGUUCACGUCGCGGCCCCUGUAAGAUUCUCGUGAAUCUGCGAAUUCUGCUGU [C39A G47C],0.945
7,GGGGGCCACAGCAGAAGCGUUCACGUCGCGGCCCCUGUGAGAUUCUGGUGAAUCCGCGAAUUCUGCUGU [C39G U55C],0.693
8,GGGGGCCACAGCAGAAGCGUUCACGUCGCGGCCCCUGUGAGAUUCUGGUGAAUCGGCGAAUUCUGCUGU [C39G U55G],0.863
9,GGGGGCCACAGCAGAAGCGUUCACGUCGCGGCCCCUGUAAGAUUCUGCUGAAUCUGCGAAUUCUGCUGU [C39A G48C],0.912
10,GGGGGCCACAGCAGAAGCGUUCACGUCGCGGCCCCUGUAAGAUUCUGUUGAAUCUGCGAAUUCUGCUGU [C39A G48U],0.903
11,GGGGGCCACAGCAGAAGCGUUCACGUCGCGGCCCCUGUGAGAUUCUGCUGAAUCUGCGAAUUCUGCUGU [C39G G48C],0.945
12,GGGGGCCACAGCAGAAGCGUUCACGUCGCGGCCCCUGUAAGAUUCUGGUGAAUCUGCGAAUUCGGCUGU [C39A U64G],0.61
13,GGGGGCCACAGCAGAAGCGUUCACGUCGCGGCCCCUGUAAGAUUCUGGUGAAUCUGCGAAUUCAGCUGU [C39A U64A],0.467
14,GGGGGCCACAGCAGAAGCGUUCACGUCGCGGCCCCUGGCAGAUUCUGGUGAAUCUGCGAAUUCUGCUCU [U38G G68C],0.175
15,GGGGGCCACAGCAGAAGCGUUCACGUCGCGGCCCCUGGCAGAUUCUGGUGAAUCUGCGAAUUCUGCUUU [U38G G68U],0.273
16,GGGGGCCACAGCAGAAGCGUUCACGUCGCGGCCCCUGUGAGACUCUGGUGAAUCUGCGAAUUCUGCUGU [C39G U43C],0.75
17,GGGGGCCACAGCAGAAGCGUUCACGUCGCGGCCCCUGUAAGAUUCUGGUGAAUCUGCGAAUUCUGGUGU [C39A C66G],0.535
18,GGGGGCCACAGCAGAAGCGUUCACGUCGCGGCCCCUGGCAGAUACUGGUGAAUCUGCGAAUUCUGCUGU [U38G U44A],0.149
19,GGGGGCCACAGCAGAAGCGUUCACGUCGCGGCCCCUGUAAGAGUCUGGUGAAUCUGCGAAUUCUGCUGU [C39A U43G],0.295
20,GGGGGCCACAGCAGAAGCGUUCACGUCGCGGCCCCUGUAAGAUUCAGGUGAAUCUGCGAAUUCUGCUGU [C39A U46A],0.925
21,GGGGGCCACAGCAGAAGCGUUCACGUCGCGGCCCCUGGCAGAUUCUGGUGAAUCUGCGAAGUCUGCUGU [U38G U61G],0.436
22,GGGGGCCACAGCAGAAGCGUUCACGUCGCGGCCCCUGGCAGAUUCUGGUGAAUCUGCGAAAUCUGCUGU [U38G U61A],0.267
23,GGGGGCCACAGCAGAAGCGUUCACGUCGCGGCCCCUGGCAGAUUCUGGUGAAUCUGCGAACUCUGCUGU [U38G U61C],0.289
24,GGGGGCCACAGCAGAAGCGUUCACGUCGCGGCCCCUGUGGGAUUCUGGUGAAUCUGCGAAUUCUGCUGU [C39G A40G],0.812
25,GGGGGCCACAGCAGAAGCGUUCACGUCGCGGCCCCUGUUAGAUUCUGGUGAAUCUGCGUAUUCUGCUGU [C39U A59U],0.527
26,GGGGGCCACAGCAGAAGCGUUCACGUCGCGGCCCCUGUUAGAUUCUGGUGAAUCUGCGCAUUCUGCUGU [C39U A59C],0.445
